Results on two molecules are retold here after paper PMC12350670.

The test deals with recombinant mouse fibroblast activation protein (mouse) (UniProt P97321). Description: BLI; biotinylated bait protein (30 nM) loaded on Octet streptavidin (SAX) biosensors; serially diluted VNAR-Fc (300-0.412 nM) as analyte; PBS with 1% BSA; kinetic analysis with a bivalent analyte model. (In general: BLI is a label-free optical method that tracks binding on a fibre tip over time.)
Sequence of recombinant mouse fibroblast activation protein (mouse) (P97321 whole entry): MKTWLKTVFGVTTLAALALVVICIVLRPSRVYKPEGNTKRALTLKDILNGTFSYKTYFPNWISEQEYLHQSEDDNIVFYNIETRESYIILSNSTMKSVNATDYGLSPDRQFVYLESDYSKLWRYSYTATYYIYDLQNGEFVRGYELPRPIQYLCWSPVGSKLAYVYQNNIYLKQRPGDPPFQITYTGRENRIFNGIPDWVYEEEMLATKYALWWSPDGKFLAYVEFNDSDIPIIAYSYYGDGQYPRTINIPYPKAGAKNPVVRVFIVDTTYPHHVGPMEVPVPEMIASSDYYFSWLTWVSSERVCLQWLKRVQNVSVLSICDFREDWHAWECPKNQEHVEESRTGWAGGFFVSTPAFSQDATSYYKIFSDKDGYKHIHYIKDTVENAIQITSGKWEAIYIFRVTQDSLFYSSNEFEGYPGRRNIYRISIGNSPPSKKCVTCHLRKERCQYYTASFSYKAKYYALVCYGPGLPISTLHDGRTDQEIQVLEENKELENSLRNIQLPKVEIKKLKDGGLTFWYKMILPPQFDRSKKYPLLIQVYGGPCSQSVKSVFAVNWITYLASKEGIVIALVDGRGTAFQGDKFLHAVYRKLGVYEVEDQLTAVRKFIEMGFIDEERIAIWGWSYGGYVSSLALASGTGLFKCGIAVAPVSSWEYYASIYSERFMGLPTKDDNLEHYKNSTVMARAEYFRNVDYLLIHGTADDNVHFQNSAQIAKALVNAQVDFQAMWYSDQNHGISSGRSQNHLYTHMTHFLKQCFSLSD

B1: NGS2405-Fc (Fc fusion)
chain: ARVDQTPQTITKETGESLTINCVLRDSNCALSFTYWYRKKSGSTNEESISKGGRYVETVNSGSKSFSLRINDLTVEDSGTYRCNVYVGGGCPHWIDVYGDGTAVTVN
Turning to B1, the Kd was 79.5 nM.

B2: H4-Fc (Fc fusion)
chain: ARVDQTPQTITKETGESLTINCVLRDSNCALSSTYWYRKKSGSTNEESISKGGRYVETVNSGSKSFSLRINDLTVEDSGTYRCNVYVAGMSPCLSWGDVYGDGTAVTVN
As to B2, the Kd is 14.2 nM.
